Consider three molecules from publication PMC9770967, “Native holdup (nHU) to measure binding affinities from cell extracts” (Science Advances, 2022).

Assay [1] concerns SNX27_PDZ. Nature of the assay: nHU-MS, SNX27_PDZ bait, total Jurkat extracts, series 1. Type of assay: binding, human. To be noted: for pKapp_HU_not_filtered: SNX27 bait, not filtered for significance; for FC_HU: SNX27 vs MBP control. The protocol: The empty His6-AviTag-MBP-TEV vector was used to produce biotinylated MBP for control experiments. Proteins were coexpressed with BirA biotin ligase (PET21a-BirA, Addgene, no. 20857) in Escherichia coli BL21(DE3) cells. At isopropyl-β-D-thiogalactopyranoside (IPTG) induction (1 mM IPTG at 18°C overnight), 50 μM biotin was added to the media. Harvested cells were lysed in a buffer containing 50 mM tris (pH 7.5), 150 to 300 mM NaCl, 50 μM biotin, 2 mM β-mercaptoethanol, cOmplete EDTA-free protease inhibitor cocktail (Roche, Basel, Switzerland), 1% Triton X-100, and trace amount of deoxyribonuclease, ribonuclease, and lysozyme. Lysates were frozen at −20°C before further purification steps. Lysates were sonicated and centrifuged for clarification. Expressed proteins were captured on in-house prepacked Ni-IDA (Protino Ni-IDA Resin, Macherey-Nagel, Duren, Germany) columns and were washed with at least 10 column volumes of cold wash buffer [50 mM tris (pH 7.5), 150 mM NaCl, and 2 mM β-mercaptoethanol] before elution with 250 mM imidazole. The Ni elution was collected directly on a preequilibrated amylose column (amylose high flow resin, New England Biolabs, Ipswich, MA). Amylose column was washed with 5 column volumes of cold wash buffer before fractionated elution in a buffer containing 25 mM Hepes (pH 7.5), 150 mM NaCl, 1 mM TCEP, 10% glycerol, 5 mM maltose, and cOmplete EDTA-free protease inhibitor cocktail. The concentration of proteins was determined by their ultraviolet absorption at 280 nm before aliquots were snap-frozen in liquid nitrogen and stored at −80°C.
For saturating streptavidin resin with biotinylated peptides or biotin, 50 μl of streptavidin resin was mixed with biotin or peptide at 40 to 60 μM concentration in 6 to 6.5 resin volume for 60 min. To saturate streptavidin resin with biotinylated proteins, 50 μl of streptavidin resin (Streptavidin Sepharose High Performance, Cytiva) was mixed with biotinylated MBP or MBP-PDZ at 40 to 50 μM concentration in 20× resin volume for 60 min. After saturation, resins were washed a single time [10 resin volume, holdup buffer: 50 mM tris (pH 7.5), 300 mM NaCl, and 1 mM TCEP, 0.22-μm filtered] and were depleted with biotin (10 resin volume, 10 min, holdup buffer supplemented with 100 μM biotin). Last, resins were washed two times (10 resin volume, holdup buffer).
For single-point nHU experiments carried out at ~10 μM bait concentration, 50 μl of saturated streptavidin resin was mixed with 200 μl of cell lysate (2 mg/ml). Titration experiments were carried out by mixing control and bait-saturated resin and keeping the total resin volume constant; e.g., ~5 μM bait concentration can be achieved by mixing 25 μl of bait-saturated streptavidin resin with 25 μl of control resin and 200 μl of cell lysate (2 mg/ml). Control and bait-saturated resins were prepared in larger amounts, and a serial dilution was prepared with these presaturated resins to achieve different resin ratios.
Unless specified elswhere, the nHU mixture was incubated at 4°C for 2 hours. After the incubation ended, the resin was separated from the supernatant by a brief centrifugation (15 s, 2000 g). Then, half of the supernatant was removed by pipetting without any delay to avoid any resin contamination; e.g., 100 μl of supernatant is collected if 200 μl of cell lysate was used as analyte. Alternatively, the supernatant can be centrifuged an additional time to clarify it further, removing any possible resin contamination. In principle, the separation of the supernatant should be as fast as possible since any delay can perturb the equilibrium. […] Alternatively, the resin can be separated from the supernatant using filter plates (e.g., various products of Millipore, Burlington, MA) or spin columns (e.g., Pierce spin cups—cellulose acetate filter from Thermo Fisher Scientific, Waltham, MA) to achieve faster separation. […]

In assay [2] the test system is SNX27_PDZ. The experiment in a line: AP-MS control pull-down on leftover resin, SNX27_PDZ bait, total Jurkat extracts. Type of assay: binding, human. To be noted: for FC_AP: SNX27 vs MBP. The protocol:
Leftover beads from nHU-MS experiments were washed three times immediately after the separation of the supernatant [10 resin volume in buffer containing 50 mM tris (pH 8.5), 150 mM NaCl, 1% Triton X-100, 10× cOmplete EDTA-free protease inhibitor cocktail, 2 mM EDTA, and 1 mM TCEP]. Then, the beads were washed two times [10 resin volume buffer containing 50 mM tris (pH 8.5), 150 mM NaCl, and 1 mM TCEP]. Last, captured protein was eluted from the resin in two steps, and the eluted fractions were pooled. For each elution, the beads were incubated for 30 min with three resin volume buffer containing 20 mM tris (pH 8.5), 100 mM NaCl, 500 μM TCEP, and 8 M urea. Between each step, the beads were separated by mild centrifugation, and the supernatant was removed by gentle pipetting.
The nHU samples were precipitated with trichloroacetic acid (TCA) 20% overnight at 4°C and centrifuged at 14,000 rpm for 10 min at 4°C. The protein pellets were washed twice with 1 ml of cold acetone and air-dried. The protein extracts were solubilized in 8 M urea, reduced with 5 mM TCEP for 30 min, and alkylated with 10 mM iodoacetamide for 30 min in the dark. Double digestion was performed at 37°C with 500 ng of endoproteinase Lys-C (Wako, Richmond, USA) for 4 hours, followed by fourfold dilution and an overnight digestion with 500 ng of trypsin (Promega, Charbonnieres les Bains, France). Peptide mixtures were then desalted on a C18 spin-column and dried on a speed vacuum.
Samples were analyzed using an Ultimate 3000 nano-RSLC coupled in line via a nano-electrospray ionization source, with an LTQ-Orbitrap ELITE mass spectrometer (Thermo Fisher Scientific, San Jose, CA) or with the Orbitrap Exploris 480 mass spectrometer (Thermo Fisher Scientific, Bremen, Germany) equipped with a high field asymmetric ion mobility spectrometry (FAIMS) module. Peptide mixtures were injected in 0.1% trifluoroacetic acid on a C18 Acclaim PepMap100 trap column [75 μm inner diameter (ID) × 2 cm, 3 μm, 100 Å, Thermo Fisher Scientific] for 3 min at 5 μl/min with 2% acetonitrile (ACN) and 0.1% formic acid (FA) in H2O and then separated on a C18 Acclaim PepMap100 nano-column (75 μm ID × 50 cm, 2.6 μm, 150 Å, Thermo Fisher Scientific) at 300 nl/min and 40°C with a 90-min linear gradient from 5 to 30% buffer B (A: 0.1% FA in H2O/B: 80% ACN, 0.1% FA in H2O) and regeneration at 5% B. Spray voltage was set to 2.1 kV and heated capillary temperature was set to 280°C.
For the Orbitrap Elite, the mass spectrometer was operated in positive ionization mode in data-dependent mode with survey scans from mass/charge ratio (m/z) 350 to 1500 acquired in the Orbitrap at a resolution of 120,000 at m/z 400. The 20 most intense peaks from survey scans were selected for further fragmentation in the linear ion trap with an isolation window of 2.0 Da and were fragmented by collision-induced dissociation (CID) with a normalized collision energy of 35% (TOP 20 CID method). Unassigned and single-charged states were excluded from fragmentation. The ion target value for the survey scans (in the Orbitrap) and the MS2 mode (in the linear ion trap) were set to 1E6 and 5E3, respectively, and the maximum injection time was set to 100 ms for both scan modes. Dynamic exclusion was set to 20 s after one repeat count with mass width at ±10 parts per million (ppm).
Proteins were identified by database search using SequestHT (Thermo Fisher Scientific) with Proteome Discoverer 2.4 software (PD2.4, Thermo Fisher Scientific) on the human FASTA database downloaded from UniProt (reviewed, release 2021_06_03, 20380 entries, https://uniprot.org/, complemented with sequences of likely contaminants, such as MBP, streptavidin, or trypsin). Precursor and fragment mass tolerances were set at 7 ppm and 0.6 Da, respectively, and up to two missed cleavages were allowed. […]

[3] abbreviates: nHU-MS, SNX27/MBP, total Jurkat extract, sheet "SNX27&Jurkat".
Where [4] appears, read: nHU-MS, SNX27 bait vs MBP control, total Jurkat extract, sheet "SNX27&Jurkat".
Where [5] appears, read: nHU-MS, total Jurkat extract, sheet "SNX27&Jurkat".
Where [6] appears, read: AP-MS control pull-down, SNX27/MBP, total Jurkat extract.
Setting [7] is: AP-MS control pull-down, total Jurkat extract.
Where [8] appears, read: Jurkat, series 1, leftover resin, n = 6.

B1: BYSL (protein, UniProt Q13895 1-437, looked up)
Bystin: MPKFKAARGVGGQEKHAPLADQILAGNAVRAGVREKRRGRGTGEAEEEYVGPRLSRRILQQARQQQEELEAEHGTGDKPAAPRERTTRLGPRMPQDGSDDEDEEWPTLEKAATMTAAGHHAEVVVDPEDERAIEMFMNKNPPARRTLADIIMEKLTEKQTEVETVMSEVSGFPMPQLDPRVLEVYRGVREVLSKYRSGKLPKAFKIIPALSNWEQILYVTEPEAWTAAAMYQATRIFASNLKERMAQRFYNLVLLPRVRDDVAEYKRLNFHLYMALKKALFKPGAWFKGILIPLCESGTCTLREAIIVGSIITKCSIPVLHSSAAMLKIAEMEYSGANSIFLRLLLDKKYALPYRVLDALVFHFLGFRTEKRELPVLWHQCLLTLVQRYKADLATDQKEALLELLRLQPHPQLSPEIRRELQSAVPRDVEDVPITVE
Take B1: the Ratio_HU in assay [1] (setting [3]) is listed as 0.6423. In assay [1] (setting [4]), this molecule had a BI_HU of 0.3577. This molecule also yielded a pKapp_HU_not_filtered in assay [1] (nHU-MS, total Jurkat extract) of 4.747. The molecule further registered an FC_HU in assay [1] (setting [5]) of -0.6386. The Ratio_AP in assay [2] (setting [6]) was 9.097. In assay [2] (setting [7]), this molecule gave an FC_AP of 3.185. In assay [2] (AP-MS control pull-down, total Jurkat extract, BINDS / DOES NOT BIND), the BINDER_AP entry is recorded as “DOES NOT BIND”.

B2: RAE1 (protein, UniProt P78406 1-368, looked up)
mRNA export factor RAE1: MSLFGTTSGFGTSGTSMFGSATTDNHNPMKDIEVTSSPDDSIGCLSFSPPTLPGNFLIAGSWANDVRCWEVQDSGQTIPKAQQMHTGPVLDVCWSDDGSKVFTASCDKTAKMWDLSSNQAIQIAQHDAPVKTIHWIKAPNYSCVMTGSWDKTLKFWDTRSSNPMMVLQLPERCYCADVIYPMAVVATAERGLIVYQLENQPSEFRRIESPLKHQHRCVAIFKDKQNKPTGFALGSIEGRVAIHYINPPNPAKDNFTFKCHRSNGTNTSAPQDIYAVNGIAFHPVHGTLATVGSDGRFSFWDKDARTKLKTSEQLDQPISACCFNHNGNIFAYASSYDWSKGHEFYNPQKKNYIFLRNAAEELKPRNKK
In turn, B2 registered a Ratio_HU in assay [1] (setting [3]) of 0.6404. The molecule further displayed a BI_HU in assay [1] (setting [4]) of 0.3596. The molecule also displayed a pKapp_HU_not_filtered in assay [1] (nHU-MS, total Jurkat extract) of 4.751. In assay [1] (setting [5]), this molecule displayed an FC_HU of -0.643. Also, in assay [2] (setting [6]), the Ratio_AP worked out at 3.111. In assay [2] (setting [7]), this molecule yielded an FC_AP of 1.637.

B3: DARS1: Aspartate--tRNA ligase, cytoplasmic (protein, UniProt P14868 1-501, looked up)
Aspartate--tRNA ligase, …: MPSASASRKSQEKPREIMDAAEDYAKERYGISSMIQSQEKPDRVLVRVRDLTIQKADEVVWVRARVHTSRAKGKQCFLVLRQQQFNVQALVAVGDHASKQMVKFAANINKESIVDVEGVVRKVNQKIGSCTQQDVELHVQKIYVISLAEPRLPLQLDDAVRPEAEGEEEGRATVNQDTRLDNRVIDLRTSTSQAVFRLQSGICHLFRETLINKGFVEIQTPKIISAASEGGANVFTVSYFKNNAYLAQSPQLYKQMCICADFEKVFSIGPVFRAEDSNTHRHLTEFVGLDIEMAFNYHYHEVMEEIADTMVQIFKGLQERFQTEIQTVNKQFPCEPFKFLEPTLRLEYCEALAMLREAGVEMGDEDDLSTPNEKLLGHLVKEKYDTDFYILDKYPLAVRPFYTMPDPRNPKQSNSYDMFMRGEEILSGAQRIHDPQLLTERALHHGIDLEKIKAYIDSFRFGAPPHAGGGIGLERVTMLFLGLHNVRQTSMFPRDPKRLTP
In the case of B3, in assay [1] (Jurkat, series 1, n = 6), the BI_HU is given as 0.3534, the “FC_HU (log2 fold change)” value is listed as -0.629 and the Ratio_HU is listed as 0.6466. In addition, the pKapp_significant_binders_HU in assay [1] (apparent, Eq. 2, Jurkat, series 1, significant binders (1 σ, P < 0.05)) came out at 4.739. In assay [2] (setting [8]), the “FC_AP (log2 fold change)” value is 3.29 and the Ratio_AP came to 9.779.
